Experiment [1] concerns the target full-length HA from isolate A/Vietnam/1194/2004 (H5N1TV) on PER.C6 cells (influenza A virus A/Vietnam/1194/2004 …, UniProt Q80A26 6-554). Kind of experiment: flow cytometry, transfected PER.C6 cells. (In flow cytometry, cells or beads pass a laser one at a time.)
Experiment [2] addresses recombinant HA, subtype H5 (A/Vietnam/1203/2004 (H5N1)) (influenza A virus A/Vietnam/1203/2004 …, UniProt Q80A26 6-554). Kind of experiment: ELISA, coated HA, IgG 5 µg/ml. Background: In an ELISA, binding on a coated surface is turned into a signal by an enzyme label.
Experiment [3] concerns the target recombinant HA, subtype H3 (A/Wyoming/3/2003(H3N2)) (influenza A virus A/Wyoming/3/2003 …). Kind of experiment: ELISA, coated HA, IgG 5 µg/ml.
Experiment [4] concerns the target recombinant HA, subtype H1 (A/New Caledonia/20/99 (H1N1)) (influenza A virus A/New Caledonia/20/99 …, UniProt Q289M7 18-565). Kind of experiment: ELISA, coated HA, IgG 5 µg/ml.

These results are taken from patent publication US20090311265A1 (CRUCELL HOLLAND B V, published 2009).

B1: CR6255 (antibody, V domains shown)
VH: EVQLVESGAEVKKPGSSVKVSCKASGGPFRSYAISWVRQAPGQGPEWMGGIIPIFGTTKYAPKFQGRVTITADDFAGTVYMELSSLRSEDTAMYYCAKHMGYQVRETMDVWGKGTTVTVSS
VL: SYVLTQPPSASGTPGQRVTISCSGSTFNIGSNAVDWYRQLPGTAPKLLIYSNNQRPSGVPDRFSGSRSGTSASLAISGLQSEDEADYYCAAWDDILNVPVFGGGTKLTVLG
For the molecule B1, in experiment [1], the “flow cytometry signal at 0.1 µg/ml” value stood at 60.4, the “flow cytometry signal at 1 µg/ml” value is 257 and the “flow cytometry signal at 10 µg/ml” value was found to be 414. The “OD 492 nm” value in experiment [2] amounted to 1.44 OD 492 nm. In addition, the “OD 492 nm” value in experiment [3] came to 0.08 OD 492 nm. Further, the “OD 492 nm” value in experiment [4] is 1.91 OD 492 nm.

B2: CR6261 (antibody, V domains shown)
VH: EVQLVESGAEVKKPGSSVKVSCKASGGPFRSYAISWVRQAPGQGPEWMGGIIPIFGTTKYAPKFQGRVTITADDFAGTVYMELSSLRSEDTAMYYCAKHMGYQVRETMDVWGKGTTVTVSS
VL: QSVLTQPPSVSAAPGQKVTISCSGSSSNIGNDYVSWYQQLPGTAPKLLIYDNNKRPSGIPDRFSGSKSGTSATLGITGLQTGDEANYYCATWDRRPTAYVVFGGGTKLTVLG
In the case of B2, the “OD 492 nm” value in experiment [3] is 0.07 OD 492 nm.

B3: CR6260 (antibody, V domains shown)
VH: EVQLVESGAEVKKPGSSVKVSCKASGGPFRSYAISWVRQAPGQGPEWMGGIIPIFGTTKYAPKFQGRVTITADDFAGTVYMELSSLRSEDTAMYYCAKHMGYQVRETMDVWGKGTTVTVSS
VL: SYVLTQPPSVSGTPGQRVTISCSGSRSNVGDNSVYWYQHVPEMAPKLLVYKNTQRPSGVPARFSGSKSGTSASLAIIGLQSGDEADYYCVAWDDSVDGYVFGSGTKVTVLG
Consider B3, for which, in experiment [1], the “flow cytometry signal at 0.1 µg/ml” value was found to be 31.1, the “flow cytometry signal at 1 µg/ml” value was determined as 168 and the “flow cytometry signal at 10 µg/ml” value is 323. For the same molecule, the “OD 492 nm” value in experiment [2] was 1.45 OD 492 nm. Besides, in experiment [3], the “OD 492 nm” value worked out at 0.08 OD 492 nm.

B4: CR6310 (antibody, V domains shown)
VH: EVQLVESGAEVKKPGSSVKVSCKASGGPFRSYAISWVRQAPGQGPEWMGGIIPIFGTTKYAPKFQGRVTITADDFAGTVYMELSSLRSEDTAMYYCAKHMGYQVRETMDVWGKGTTVTVSS
VL: SYVLTQPPSVSVAPGQTARITCGGNNIGSKSVHWYQQKPGQAPVLVVYDDSDRPSGIPERFSGSNSGNTATLTISRVEAGDEADYYCQVWDSSSDHAVFGGGTQLTVLG
B4: the entries for the “OD 492 nm” value in experiment [2] and in experiment [3] were 1.37 OD 492 nm and 0.08 OD 492 nm, respectively.

B5: CR6332 (antibody, V domains shown)
VH: QVQLVQSGAEVKKPGSSVKVSCKASGGPFRNFAINWVRQAPGQGLEWMGGIIAVFGTTKYAHKFQGRVTITADDSTNTAYMELGSLKSEDTAVYYCARGPHYYSSYMDVWGEGTTVTVSS
VL: DIQLTQSPSSLSASVGDRVTITCRASQGISTYLAWYQQKPGKVPKLLIYAASTLQSGVPSRFSGSGSGTDFTLTISSLQPEDVATYYCQKYNSAPSFGPGTKVDIKR
Take B5: the “OD 492 nm” value in experiment [2] amounted to 1.65 OD 492 nm; in experiment [3] it was 0.15 OD 492 nm; in experiment [4], 2.2 OD 492 nm.

B6: CR6329 (antibody, V domains shown)
VH: EVQLVQSGAEVKKPGSSVKVSCKASGGIFRSNSISWVRQAPGQGLEWMGGIFALFGTTDYAQKFQGRVTITADESSTTVYLELSSLTSEDTAVYYCARGSGYTTRNYFDYWGQGTLVTVSS
VL: EIVLTQSPGTLSLSPGERATLSCRASQSVSSNYLGWYQQKPGQAPRLLIYGASSRASGIPDRFSGGGSGTDFTLTISRLEPEDFAVYYCQQYGSSPLTFGGGTKVEIKR
In the case of B6, in experiment [3], the “OD 492 nm” value worked out at 0.08 OD 492 nm.

B7: CR6336 (antibody, V domains shown)
VH: QMQLVQSGAEVKKPGSSVKVSCKASGGTFSSYAISWVRQAPGQGLEWMGGIFGMFGTANYAQKFQGRVTITADEFTSAAYMELSSLGSEDTAMYYCARSSGYYPQYFQDWGQGTLVTVSS
VL: EIVMTQSPGTLSLSPGQRATLSCRASQSVSSSYLAWYQQKPGQAPRLLMYGASSRATGIPDRFSGSGSGTDFTLTISRLEPEDFAVYYCQQYGSSSLTFGGGTKLEIKR
As for B7, the “OD 492 nm” value in experiment [2] was 1.41 OD 492 nm; in experiment [3] it was 0.1 OD 492 nm; in experiment [4], 1.92 OD 492 nm.

B8: CR6325 (antibody, V domains shown)
VH: EVQLVESGAEVKKPGSSVKVSCKASGGTFSFYSMSWVRQAPGQGLEWMGGIIPMFGTTNYAQKFQGRVTITAVESTSTAYMEVSSLRSEDTAVYYCARGDKGIYYYYMDVWGKGTTVTVSS
VL: QSALTQPASVSGSPGQSITISCTGTSSDVGGYNYVSWYQQHPGKAPKLMIYEVSNRPSGVSNRFSGSKSGNTASLTISGLQAEDEADYYCSSYTSSSTLVFGTGTKVTVLG
On to B8, for which, in experiment [3], the “OD 492 nm” value came to 0.07 OD 492 nm.

B9: CR6328 (antibody, V domains shown)
VH: EVQLVESGAEVKKPGSSVKVSCKASGHIFSGYAISWVRQAPGQGLEWMGGIIPIFGTTNYAQKFQGRVTITADQSTSTAYMDLSNLRSEDTAVYYCARVKDGYCTLTSCPVGWYFDLWGRGTLVTVSS
VL: not shown
In the case of B9, the “OD 492 nm” value came out at 1.78 OD 492 nm in experiment [2], 0.07 OD 492 nm in experiment [3] and 2.43 OD 492 nm in experiment [4].

B10: CR6327 (antibody, V domains shown)
VH: EVQLVETGAEVKKPGSSVKVSCKASGGTFRTHAISWVRQAPGQGLEWMGGIIAIFGTANYAQKFQGRITITADESTSTAYMELSSLRSEDTAVYFCARGSGYHISTPFDNWGQGTLVTVSS
VL: SYVLTQPPSVSVAPGQTARITCGGNNIGSKGVHWYQQKPGQAPVLVVYDDSDRPSGIPERFSGSNSGNTATLTISRVEAGDEADYYCQVWDSSSDHVVFGGGTKLTVLG
As to B10, the “OD 492 nm” value was 1.11 OD 492 nm in experiment [2] and 0.08 OD 492 nm in experiment [3].

B11: CR6331 (antibody, V domains shown)
VH: EVQLVESGAEVKKPGSSVKVSCKASGGTFSSYAISWVRQAPGQGLEWMGGIIGMFGTANYAQKFQGRVTITADEFTSTAYMELSSLRSEDTAVYYCARGNYYYESSLDYWGQGTLVTVSS
VL: QSVVTQPPSVSVAPGQTARITCGGNNIGSKSVHWYQQKPGQAPVLVVYDDSDRPSGIPERFSGSNSGNTATLTISRVEAGDEADYYCQVWDSSSDHYVFGTGTKVTVLG
As to B11, the “OD 492 nm” value in experiment [2] was 1.32 OD 492 nm; in experiment [3], 0.06 OD 492 nm.

B12: CR6334 (antibody, V domains shown)
VH: EVQLVETGAEVKKPGSSVKVPCKSSGSPFRSNAVSWVRQAPGQGLEWVGGILGVFGSPSYAQKFQGRVTITADESTNTVHMELRGLRSEDTAVYYCARGPTYYYSYMDVWGKGTTVTVSS
VL: SYVLTQPPSESVAPGQTARITCGGNNIGRNSVHWYQQKPGQAPVLVVYDDSDRPSGIPERFSGSKSGNTATLIISRVEVGDEADYYCQVWHSSSDHYVFGTGTKVTVLG
B12: the “OD 492 nm” value turned out to be 1.19 OD 492 nm in experiment [2], 0.07 OD 492 nm in experiment [3] and 2.04 OD 492 nm in experiment [4].

B13: CR6262 (antibody, V domains shown)
VH: QVQLQQSGAEVKKPGSSVKVSCKVSGVIFSGSAISWVRQAPGQGLEWMGGISPLFGTTNYAQKFQGRVTITADQSTNTTYMEVNSLRYEDTAVYFCARGPKYYSEYMDVWGKGTTVTVSS
VL: DIQMTQSPSSLSASVGDRVTITCRASQGISSYLAWYQQKPGKVPTLLIYDASTLRSGVPSRFSGSGSATDFTLTISSLQPEDVATYYCQRYNSAPPITFGQGTRLEIKR
As for B13, in experiment [1], the “flow cytometry signal at 0.1 µg/ml” value turned out to be 8.06. The “flow cytometry signal at 1 µg/ml” value in experiment [1] amounted to 20.9. In addition, in experiment [1], the “flow cytometry signal at 10 µg/ml” value is 84.3. The “OD 492 nm” value in experiment [2] came to 1.02 OD 492 nm; in experiment [3] it was 0.09 OD 492 nm; in experiment [4], 1.48 OD 492 nm.
